Measurements as given in publication PMC10858868, “TFIP11 promotes replication fork reversal to preserve genome stability”.

T1: TFIP11 (UniProt Q9UBB9 1-837)
T1 sequence: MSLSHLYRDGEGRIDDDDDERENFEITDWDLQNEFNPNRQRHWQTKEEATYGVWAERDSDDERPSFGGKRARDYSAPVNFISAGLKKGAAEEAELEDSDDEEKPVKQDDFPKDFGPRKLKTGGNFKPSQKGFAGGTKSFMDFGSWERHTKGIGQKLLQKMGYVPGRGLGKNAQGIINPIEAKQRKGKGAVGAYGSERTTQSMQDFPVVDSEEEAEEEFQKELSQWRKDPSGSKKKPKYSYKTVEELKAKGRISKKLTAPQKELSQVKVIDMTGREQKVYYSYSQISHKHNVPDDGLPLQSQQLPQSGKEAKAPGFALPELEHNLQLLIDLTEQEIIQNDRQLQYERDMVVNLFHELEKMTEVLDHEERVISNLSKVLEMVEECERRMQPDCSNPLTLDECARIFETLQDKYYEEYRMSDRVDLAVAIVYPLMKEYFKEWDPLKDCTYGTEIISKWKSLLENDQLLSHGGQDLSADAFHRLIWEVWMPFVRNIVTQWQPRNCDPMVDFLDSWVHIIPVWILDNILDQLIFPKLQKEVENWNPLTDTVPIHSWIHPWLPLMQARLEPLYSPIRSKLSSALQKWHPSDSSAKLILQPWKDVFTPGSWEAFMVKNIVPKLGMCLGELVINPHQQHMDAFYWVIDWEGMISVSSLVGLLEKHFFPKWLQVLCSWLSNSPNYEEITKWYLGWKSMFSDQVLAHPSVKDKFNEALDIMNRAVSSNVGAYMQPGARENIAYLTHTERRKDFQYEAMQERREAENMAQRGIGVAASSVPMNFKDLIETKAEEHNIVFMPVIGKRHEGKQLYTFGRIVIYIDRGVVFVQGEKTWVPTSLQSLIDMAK


Target: T1, TFIP11
Test: EMSA; 15, 30 nM TFIP11; 0.5 nM DNA; at most about 6% bound in Source Data; EMSA: 10 mM MgCl2, 2.5% glycerol, 0.05% NP-40, 0.5 nM biotin-DNA, 20 min, room temperature (Pierce LightShift kit). Pull-down: 20 mM Tris-HCl pH 7.5, 120 mM NaCl, 0.1% Triton X-100, 2 mM CaCl2, 10 mM Mg(OAc)2, 1 mM DTT, 0.1 mg/mL BSA, 4 °C, 30 min
Conditions: protein: recombinant, tags: His-SUMO (N-terminal)

Binder | binding result (label: 5'-biotin on oligo 1, blunt) | binding result (label: 5'-biotin, single strand)
dsDNA (oligo 1 + oligo 2) (dsDNA) DNA 1: GACGCTGCCGAATTCTACCAGTGCCTTGCTAGGACATCTTTGCCCACCTGCAGGTTCAC DNA 2: GTGAACCTGCAGGTGGGCAAAGATGTCCTAGCAAGGCACTGGTAGAATTCGGCAGCGTC | no binding | –
ssDNA (oligo 1) (ssDNA) DNA: GACGCTGCCGAATTCTACCAGTGCCTTGCTAGGACATCTTTGCCCACCTGCAGGTTCAC | – | no binding
